In patent publication US20240374748A1 (University of California, published 2024):

T1: ALPL (UniProt P05186 18-501, limits assumed)
T1 construct: whole, on cells; Expressed on ALPL-transfected HEK293 cells; also called tissue-nonspecific, liver/bone/kidney alkaline phosphatase
T1 sequence (looked up): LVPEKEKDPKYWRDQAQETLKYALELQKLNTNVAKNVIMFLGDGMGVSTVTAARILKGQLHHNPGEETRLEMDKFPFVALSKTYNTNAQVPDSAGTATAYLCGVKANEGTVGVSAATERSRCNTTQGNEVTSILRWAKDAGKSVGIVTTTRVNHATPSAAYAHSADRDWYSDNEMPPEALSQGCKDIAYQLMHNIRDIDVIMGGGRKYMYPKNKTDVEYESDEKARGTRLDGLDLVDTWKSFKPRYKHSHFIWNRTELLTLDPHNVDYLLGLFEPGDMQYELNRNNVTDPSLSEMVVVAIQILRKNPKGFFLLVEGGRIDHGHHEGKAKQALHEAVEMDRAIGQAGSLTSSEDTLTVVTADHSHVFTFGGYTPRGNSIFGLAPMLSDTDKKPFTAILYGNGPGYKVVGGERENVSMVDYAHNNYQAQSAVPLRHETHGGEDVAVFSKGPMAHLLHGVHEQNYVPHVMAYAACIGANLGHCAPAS

T2: ALPI (UniProt P09923 20-503, limits assumed)
T2 construct: whole, on cells; Expressed on ALPI-transfected HEK293 cells; also called intestinal alkaline phosphatase
T2 sequence (looked up): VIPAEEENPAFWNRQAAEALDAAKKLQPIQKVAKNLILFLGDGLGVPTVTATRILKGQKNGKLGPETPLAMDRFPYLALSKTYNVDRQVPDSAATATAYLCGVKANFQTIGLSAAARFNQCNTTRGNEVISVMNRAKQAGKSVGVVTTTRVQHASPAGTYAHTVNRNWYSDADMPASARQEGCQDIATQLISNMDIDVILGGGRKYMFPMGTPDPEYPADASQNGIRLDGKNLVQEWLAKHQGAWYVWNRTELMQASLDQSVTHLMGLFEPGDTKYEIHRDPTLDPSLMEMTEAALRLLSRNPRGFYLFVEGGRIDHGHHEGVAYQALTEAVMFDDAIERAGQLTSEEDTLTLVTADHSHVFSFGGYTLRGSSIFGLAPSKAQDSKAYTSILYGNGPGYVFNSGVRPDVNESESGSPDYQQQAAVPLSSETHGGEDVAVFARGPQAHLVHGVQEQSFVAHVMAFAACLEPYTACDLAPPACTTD


What was measured:
ALPL = target: T1, ALPL; assay: FACS on live transfected HEK293 cells, IgG1
ALPP = target: T3, ALPP (human, UniProt P05187 23-506); assay: FACS on live ALPP-transfected HEK293 cells
T3 construct: Expressed on transfected HEK293 cells; also called placentally expressed ALPP

ALPPL2 [1] = target: T4, ALPPL2 (human, UniProt P10696 20-503); assay: FACS on live HEK293 cells transfected with ALPPL2 (GFP+ gated), curve fit of normalized MFI; ALPPL2-transfected HEK293 cells
T4 construct: Expressed from an ALPPL2 plasmid or cDNA on HEK293 cells, and endogenous on tumor cells; also called placentally expressed ALPPL2; membrane ALPPL2
Description: (§1) Cells were incubated with antibody at room temperature for 1h in PBS/0.2% fetal calf serum, washed three times and further incubated with ALEXAFLOU®-647-labeled anti-human secondary antibody. GFP+ cells were gated and analyzed for mean fluorescence intensity (MFI). […] Similar binding results were obtained on ALPP-transfected cells. There is no binding to ALPL-transfected cells.

ALPPL2 [2] = target: T4, ALPPL2; assay: apparent affinity on tumor cells, IgG1; method and cell line not stated; tumor cells, IgG1 form
ALPPL2 [3] = target: T4, ALPPL2; assay: FACS on live HEK293 cells transfected with ALPPL2 (GFP+ gated), curve fit of normalized MFI
Description: as §1, with “either ALPL or ALPI-transfected” for “ALPL-transfected”

ALPI = target: T2, ALPI; assay: FACS on live transfected HEK293 cells, IgG1

T4 sequence (P10696 20-503 limits assumed): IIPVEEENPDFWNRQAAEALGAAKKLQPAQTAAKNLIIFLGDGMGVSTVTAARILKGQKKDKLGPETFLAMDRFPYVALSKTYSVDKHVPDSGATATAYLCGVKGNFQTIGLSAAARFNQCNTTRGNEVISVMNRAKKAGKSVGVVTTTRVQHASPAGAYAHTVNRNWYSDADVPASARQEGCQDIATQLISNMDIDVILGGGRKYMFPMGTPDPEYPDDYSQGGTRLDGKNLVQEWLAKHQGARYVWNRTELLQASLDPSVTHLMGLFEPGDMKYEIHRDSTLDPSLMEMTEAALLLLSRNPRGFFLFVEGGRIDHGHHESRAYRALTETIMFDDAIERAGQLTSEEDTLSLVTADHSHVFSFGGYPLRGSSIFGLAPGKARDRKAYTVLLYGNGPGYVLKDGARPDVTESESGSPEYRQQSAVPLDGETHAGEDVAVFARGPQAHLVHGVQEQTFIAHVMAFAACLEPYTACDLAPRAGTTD
T3 sequence (P05187 23-506 limits assumed): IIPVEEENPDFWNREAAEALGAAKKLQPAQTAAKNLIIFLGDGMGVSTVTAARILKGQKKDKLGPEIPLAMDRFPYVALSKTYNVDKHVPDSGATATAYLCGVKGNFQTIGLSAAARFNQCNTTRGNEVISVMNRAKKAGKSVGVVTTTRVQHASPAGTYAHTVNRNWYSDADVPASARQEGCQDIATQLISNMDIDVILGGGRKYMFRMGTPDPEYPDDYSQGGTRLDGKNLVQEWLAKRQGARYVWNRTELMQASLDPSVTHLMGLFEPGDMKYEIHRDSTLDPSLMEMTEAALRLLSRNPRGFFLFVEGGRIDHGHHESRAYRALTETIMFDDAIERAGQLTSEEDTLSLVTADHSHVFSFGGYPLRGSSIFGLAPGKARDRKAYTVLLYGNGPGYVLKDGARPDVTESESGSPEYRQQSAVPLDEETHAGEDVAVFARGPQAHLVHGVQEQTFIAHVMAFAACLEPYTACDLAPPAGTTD

binding result (ALPL)	binding result (ALPP)	Kd (ALPPL2 [1])	Kd (ALPPL2 [2])	Kd (ALPPL2 [3])	binding result (ALPI)	Binder
no binding	binds	0.017 nM	–	–	–	M25ADLF IgG1 (antibody, V domains shown, Tested as human IgG1; Residue limits are from CLM-00120) VH: QVQLQQSGGGLVKPGGSLRLSCAASGFTFSSYDMHWVRQAPGKGLEWVAVISYDGSNKYYADSVKGRFTISRDNSKNTLYLQMDSLRAEDTAVYFCAKEGDSSRWSYDLWGRGTLVTVSS VL: QSALTQPASVSGSPGQSITISCTGTSSDVGGYNYVSWYQQHPGKAPKVMIYDVTNRPSGVSNRFSGSKSGNTASLTISGLQAEDEADYYCSSYTSTSTFVVFGGGTKLTVLG
no binding	binds	–	–	0.506 nM	no binding	M25 IgG1 (antibody, V domains shown, also called our M25 antibody; our anti-ALPPL2 antibody M25) VH: QVQLQQSGGGLVKPGGSLRLSCAASGFTFSSYAMHWVRQAPGKGLEWVAVISYDGSNKYYADSVKGRFTISRDNSKNTLYLQMDSLRAEDTAVYFCAKEGDSSRWSYDLWGRGTLVTVSS VL: QSALTQPASVSGSPGQSITISCTGTSSDVGGYNYVSWYQQHPGKAPKVMIYDVTNRPSGVSNRFSGSKSGNTASLTISGLQAEDEADYYCSSYTSTSTLVVFGGGTKLTVL

Continued, binder first:

Binder	binding result (ALPL)	binding result (ALPP)	Kd (ALPPL2 [1])	Kd (ALPPL2 [2])	Kd (ALPPL2 [3])	binding result (ALPI)
M25FYIA IgG1 (antibody, V domains shown, Tested as human IgG1) VH: QVQLQQSGGGLVKPGGSLRLSCAASGFTFSSYAMHWVRQAPGKGLEWVAVISYDGSNKYYADSVKGRFTISRDNSKNTLYLQMDSLRAEDTAVYYCAKEGDSSRWSYDLWGRGTLVTVSS VL: QSALTQPASVSGSPGQSITISCTGTSSDVGGYNYVSWYQQHPGKAPKVMIYDVTNRPSGVSNRFSGSKSGNTASLTISGLQAEDEADYYCSSYTIASTLVVFGGGTKLTVL	no binding	binds	0.0204 nM	–	–	–
M25AD IgG1 (antibody, V domains shown, Tested in its IgG1 form; also called a variant of M25) VH: QVQLQQSGGGLVKPGGSLRLSCAASGFTFSSYDMHWVRQAPGKGLEWVAVISYDGSNKYYADSVKGRFTISRDNSKNTLYLQMDSLRAEDTAVYFCAKEGDSSRWSYDLWGRGTLVTVSS VL: QSALTQPASVSGSPGQSITISCTGTSSDVGGYNYVSWYQQHPGKAPKVMIYDVTNRPSGVSNRFSGSKSGNTASLTISGLQAEDEADYYCSSYTSTSTLVVFGGGTKLTVL	–	–	–	0.028 nM	–	–
